Test results as given in doi:10.1101/2025.11.28.691101, “Interaction and co-phase separation of SARS-CoV-2 nucleocapsid protein and human hnRNPA1 and its implications for viral life cycle” (bioRxiv, 2025).

Columns and labels:
[1] = biological target: T1, SARS-CoV-2 nucleocapsid (N) protein, full-length, N-terminally 6xHis-tagged (SARS-CoV-2, UniProt P0DTC9 1-419); assay: pull-down; conditions: both partners purified
T1 construct: SARS-CoV-2 nucleocapsid (N) protein, full-length, residues 1 to 419 (419 amino acids); also called 6XHis-N protein; FL N protein; not shown: His6, N-terminal, kept

[2] = biological target: T1, SARS-CoV-2 nucleocapsid (N) protein, …; assay: MST; RED-NHS-labelled hnRNPA1 (5 nM) titrated with N protein, NTD, CTD or LKR+CTD; 16 two-fold dilutions from 100 μM; Monolith NT.115; single-site binding model; triplicates; conditions: both partners purified

Binder	binding result [1]	Kd [2] [nM]
N-terminally GST-tagged human hnRNPA1 (natural protein, UniProt P09651-2 1-320, looked up, human hnRNPA1; Prey of the Ni-NTA pull-down; The general purification method names only Ni-NTA and SEC; also called GST-hnRNPA1; source: E. coli, purified; not shown: GST, N-terminal, kept) MSKSESPKEPEQLRKLFIGGLSFETTDESLRSHFEQWGTLTDCVVMRDPNTKRSRGFGFVTYATVEEVDAAMNARPHKVDGRVVEPKRAVSREDSQRPGAHLTVKKIFVGGIKEDTEEHHLRDYFEQYGKIEVIEIMTDRGSGKKRGFAFVTFDDHDSVDKIVIQKYHTVNGHNCEVRKALSKQEMASASSSQRGRSGSGNFGGGRGGGFGGNDNFGRGGNFSGRGGFGGSRGGGGYGGSGDGYNGFGNDGSNFGGGGSYNDFGNYNNQSSNFGPMKGGNFGGRSSGPYGGGGQYFAKPRNQGGYGGSSSSSSYGSGRRF	binds	–
human hnRNPA1, full-length (residues 1 to 320), fluorescently labelled (natural protein, UniProt P09651-2 1-320, looked up, RED-NHS 2nd generation dye, human hnRNPA1, full-length, residues 1 to 320 (320-residue form); Labelled protein of the MST titrations (5 nM); also called full length hnRNPA1; source: E. coli Rosetta (DE3), purified (Ni-NTA, SEC)) MSKSESPKEPEQLRKLFIGGLSFETTDESLRSHFEQWGTLTDCVVMRDPNTKRSRGFGFVTYATVEEVDAAMNARPHKVDGRVVEPKRAVSREDSQRPGAHLTVKKIFVGGIKEDTEEHHLRDYFEQYGKIEVIEIMTDRGSGKKRGFAFVTFDDHDSVDKIVIQKYHTVNGHNCEVRKALSKQEMASASSSQRGRSGSGNFGGGRGGGFGGNDNFGRGGNFSGRGGFGGSRGGGGYGGSGDGYNGFGNDGSNFGGGGSYNDFGNYNNQSSNFGPMKGGNFGGRSSGPYGGGGQYFAKPRNQGGYGGSSSSSSYGSGRRF	–	~180
